Results published in paper PMC10240976 (2022).

Biological target: LC3B K65W
Test: ITC

Kd: 22.4 µM
Binder: LQFEIDDEMEPLYNQAKQMRYGDY [LIR[Sp] peptide]
